Laboratory results from IntAct's records for PubMed 10206957.

B1: Signal peptidase complex catalytic subunit SEC11 (Saccharomyces cerevisiae), P15367 (parent)
chain: MNLRFELQKLLNVCFLFASAYMFWQGLAIATNSASPIVVVLSGSMEPAFQRGDILFLWNRNTFNQVGDVVVYEVEGKQIPIVHRVLRQHNNHADKQFLLTKGDNNAGNDISLYANKKIYLNKSKEIVGTVKGYFPQLGYITIWISENKYAKFALLGMLGLSALLGGE
partner: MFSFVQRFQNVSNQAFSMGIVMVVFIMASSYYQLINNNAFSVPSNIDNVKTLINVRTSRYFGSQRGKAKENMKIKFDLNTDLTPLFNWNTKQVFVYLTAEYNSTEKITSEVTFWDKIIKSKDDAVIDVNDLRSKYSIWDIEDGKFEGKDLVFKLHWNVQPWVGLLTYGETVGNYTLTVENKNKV

Variants of: B1
Details: with spc3_yeast SPC3, Q12133

Row | effect of a mutation on the interaction | Variant
1 | decreasing interaction | D103N
